Molecular target: trkB with a gD tag expressed on CHO cells
Assay: cell-based or functional assay

EC50, kinase receptor activation (KIRA) assay: 0.0126 µg/mL
B1: recombinant human NT-4/5 (rhNT-4/5), correctly folded, intact, purified from E. coli (ligand)
chain: GVSETAPASRRGELAVCDAVSGWVTDRRTAVDLRGREVEVLGEVPAAGGSPLRQYFFETRCKADNAEEGGPGAGGGGCRGVDRRHWVSECKAKQSYVRALTAHAQGRVGWRWIRIDTACVCTLLSRTGRA

From patent US20040138431A1 (Genentech, published 2004)
